# No end group written: not given here.
# T1: MBP fusion of MKK5(PB1-D) (construct E, 16–130) (human, UniProt Q13163 16-130)
# T1 sequence: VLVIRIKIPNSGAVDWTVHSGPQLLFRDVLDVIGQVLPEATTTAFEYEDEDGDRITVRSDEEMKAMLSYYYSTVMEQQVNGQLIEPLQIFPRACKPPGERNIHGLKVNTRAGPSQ
# B1: ERK5 MAPK construct containing the N-terminal region of ERK5-(1–431) (domain or fragment)
# chain: MAEPLKEEDGEDGSAEPPGPVKAEPAHTAASVAAKNLALLKARSFDVTFDVGDEYEIIETIGNGAYGVVSSARRRLTGQQVAIKKIPNAFDVVTNAKRTLRELKILKHFKHDNIIAIKDILRPTVPYGEFKSVYVVLDLMESDLHQIIHSSQPLTLEHVRYFLYQLLRGLKYMHSAQVIHRDLKPSNLLVNENCELKIGDFGMARGLCTSPAEHQYFMTEYVATRWYRAPELMLSLHEYTQAIDLWSVGCIFGEMLARRQLFPGKNYVHQLQLIMMVLGTPSPAVIQAVGAERVRAYIQSLPPRQPVPWETVYPGADRQALSLLGRMLRFEPSARISAAAALRHPFLAKYHDPDDEPDCAPPFDFAFDREALTRERIKEAIVAEIEDFHARREGIRQQIRFQPSLQPVASEPGCPDVEMPSPWAPSGDCAM
# Assays:
# [1] = target: B1; assay: pull-down
# [2] = target: Full-length MKK5 (MKK5_FL) (human, UniProt Q13163 1-448); assay: fluorescence polarisation
# [3] = target: B1; assay: fluorescence polarisation
# [4] = target: B1; assay: fluorescence polarisation; remark: listed apart in the source
# ERK2 = ERK2 (human, UniProt P28482 1-360); assay: fluorescence polarisation
# ERK2, sequence (P28482 whole entry, the tested form may be a part): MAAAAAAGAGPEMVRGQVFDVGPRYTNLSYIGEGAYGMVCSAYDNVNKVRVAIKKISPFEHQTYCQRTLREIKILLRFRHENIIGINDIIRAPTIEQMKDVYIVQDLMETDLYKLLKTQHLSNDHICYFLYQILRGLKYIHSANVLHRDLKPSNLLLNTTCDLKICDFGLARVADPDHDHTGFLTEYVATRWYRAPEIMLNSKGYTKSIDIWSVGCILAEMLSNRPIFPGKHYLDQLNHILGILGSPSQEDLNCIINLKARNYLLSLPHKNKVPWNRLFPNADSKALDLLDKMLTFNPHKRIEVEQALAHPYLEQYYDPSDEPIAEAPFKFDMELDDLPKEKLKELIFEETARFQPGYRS
# [5] = target: T1, MBP fusion of MKK5(PB1-D) (construct E, …); assay: pull-down
binder,measurement,setting,value
"MBP fusion of MKK5 construct B (113–448) (domain or fragment, human, UniProt Q13163 113-448, looked up) GERNIHGLKVNTRAGPSQHSSPAVSDSLPSNSLKKSSAELKKILANGQMNEQDIRYRDTLGHGNGGTVYKAYHVPSGKILAVKVILLDITLELQKQIMSELEILYKCDSSYIIGFYGAFFVENRISICTEFMDGGSLDVYRKMPEHVLGRIAVAVVKGLTYLWSLKILHRDVKPSNMLVNTRGQVKLCDFGVSTQLVNSIAKTYVGTNAYMAPERISGEQYGIHSDVWSLGISFMELALGRFPYPQIQKNQGSLMPLQLLQCIVDEDSPVLPVGEFSEPFVHFITQCMRKQPKERPAPEELMGHPFIVQFNDGNAAVVSMWVCRALEERRSQQGPP",binding result,[1],binds
B1,Kd,[2],< 0.1 µM
tetramethylrhodamin-SRKPDLRVVIPPS [pepMEF2 (labeled MEF2A D-motif peptide)],binding result,[3],binds
ASKPPGERNIHGLKVNTRA [pepMKK5 (peptide with the linear D-motif of MKK5)],Kd,[4],4.2 µM
same,Kd,ERK2,> 100 µM
"GST-MEKK3(PB1) (MEKK3 PB1 domain, residues 42–126) (domain or fragment) QSDVRIKFEHNGERRIIAFSRPVKYEDVEHKVTTVFGQPLDLHYMNNELSILLKNQDDLDKAIDILDRSSSMKSLRILLLSQDRN",binding result,[5],binds
